What is called IC50 is the concentration needed to halve the response being measured. The Kd is a measure of binding affinity in units of concentration.

Our source for the IC50 and Kd values is article PMC6995573 (2019).

T1: Human ornithine decarboxylase (human, UniProt P11926 2-421)
T1 chain: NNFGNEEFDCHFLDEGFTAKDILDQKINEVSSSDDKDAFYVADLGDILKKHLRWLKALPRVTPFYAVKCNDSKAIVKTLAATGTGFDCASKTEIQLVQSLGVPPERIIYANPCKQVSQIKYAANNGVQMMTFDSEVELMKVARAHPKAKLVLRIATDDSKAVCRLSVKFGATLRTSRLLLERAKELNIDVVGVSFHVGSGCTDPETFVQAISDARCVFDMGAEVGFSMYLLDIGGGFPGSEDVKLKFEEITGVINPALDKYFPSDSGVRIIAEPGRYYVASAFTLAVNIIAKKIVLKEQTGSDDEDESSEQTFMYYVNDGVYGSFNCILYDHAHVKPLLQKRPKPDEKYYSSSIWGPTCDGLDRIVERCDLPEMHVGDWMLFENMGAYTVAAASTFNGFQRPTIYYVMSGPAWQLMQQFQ

B1: AZ2 (natural protein)
chain: MINTQDSSILPLSNCPQLQCCRHIVPGPLWCSDAPHPLSKIPGGRGGGRDPSLSALIYKDEKLTVTQDLPVNDGKPHIVHFQYEVTEVKVSSWDAVLSSQSLFVEIPDGLLADGSKEGLLALLEFAEEKMKVNYVFICFRKGREDRAPLLKTFSFLGFEIVRPGHPCVPSRPDVMFMVYPLDQNLSDED
B2: AZ3_WT (natural protein)
chain: MPCKRCRPSVYSLSYIKRGKTRNYLYPIWSPYAYYLYCYKYRITLREKMLPRCYKSITYKEEEDLTLQPRSCLQCSESLVGLQEGKSTEQGNHDQLKELYSAGNLTVLATDPLLHQDPVQLDFHFRLTSQTSAHWHGLLCDRRLFLDIPYQALDQGNRESLTATLEYVEEKTNVDSVFVNFQNDRNDRGALLRAFSYMGFEVVRPDHPALPPLDNVIFMVYPLERDVGHLPSEPP
B3: AZ_(95–228)_E105A (domain or fragment)
chain: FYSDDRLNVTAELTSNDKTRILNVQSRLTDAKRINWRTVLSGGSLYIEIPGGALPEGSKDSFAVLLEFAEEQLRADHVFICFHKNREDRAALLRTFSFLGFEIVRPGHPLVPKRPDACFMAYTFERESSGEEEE
B4: AZ_(95–228)_D124A (domain or fragment)
chain: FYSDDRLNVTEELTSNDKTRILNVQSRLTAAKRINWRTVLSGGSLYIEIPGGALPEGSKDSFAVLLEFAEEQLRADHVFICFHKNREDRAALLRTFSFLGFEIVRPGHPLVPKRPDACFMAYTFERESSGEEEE
B5: AZ_(95–228)_D98A (domain or fragment)
chain: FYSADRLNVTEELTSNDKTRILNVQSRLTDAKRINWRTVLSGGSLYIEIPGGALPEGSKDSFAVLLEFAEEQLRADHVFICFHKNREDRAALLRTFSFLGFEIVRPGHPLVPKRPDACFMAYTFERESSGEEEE
B6: AZ_(95–228)_R121A (domain or fragment)
chain: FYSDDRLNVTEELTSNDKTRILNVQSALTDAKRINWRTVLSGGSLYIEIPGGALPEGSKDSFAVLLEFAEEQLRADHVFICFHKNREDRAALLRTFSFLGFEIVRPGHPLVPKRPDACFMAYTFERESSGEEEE
B7: AZ_(95–228)_R114A (domain or fragment)
chain: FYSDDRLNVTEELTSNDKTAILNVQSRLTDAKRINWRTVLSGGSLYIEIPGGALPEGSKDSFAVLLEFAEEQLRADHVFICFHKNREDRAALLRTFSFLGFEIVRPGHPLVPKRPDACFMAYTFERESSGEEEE
B8: AZ_(95–228)_D99A (domain or fragment)
chain: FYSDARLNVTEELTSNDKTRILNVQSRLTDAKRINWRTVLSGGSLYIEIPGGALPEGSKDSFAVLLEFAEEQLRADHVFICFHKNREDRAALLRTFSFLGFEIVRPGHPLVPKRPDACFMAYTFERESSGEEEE
B9: AZ_(95–228)_E106A (domain or fragment)
chain: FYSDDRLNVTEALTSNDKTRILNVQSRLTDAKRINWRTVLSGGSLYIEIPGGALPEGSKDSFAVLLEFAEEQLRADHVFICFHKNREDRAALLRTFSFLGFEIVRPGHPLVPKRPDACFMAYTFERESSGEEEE
B10: AZ_(95–228)_D111A (domain or fragment)
chain: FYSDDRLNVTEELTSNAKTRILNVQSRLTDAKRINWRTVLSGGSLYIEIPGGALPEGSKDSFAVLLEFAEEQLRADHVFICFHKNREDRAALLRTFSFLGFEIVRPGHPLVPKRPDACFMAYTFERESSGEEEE
B11: AZ_(95–228)_R100A (domain or fragment)
chain: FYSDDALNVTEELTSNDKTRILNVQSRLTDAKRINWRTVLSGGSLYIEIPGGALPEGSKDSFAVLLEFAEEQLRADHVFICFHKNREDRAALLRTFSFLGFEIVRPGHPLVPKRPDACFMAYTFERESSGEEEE

The target in the first experiment is T1, Human ornithine decarboxylase. Kind of experiment: inhibition of ODC enzyme activity.
B1: the IC50 was found to be 190 nM.
The same measure, in the same setting: the same measure for B2: 840 nM.

The target is the same in another experiment. Kind of experiment: AUC.
In turn, B1 had a Kd of 280 nM.
Molecule B2 displayed a Kd of 590 nM.

For the next experiment the target is unchanged. Description: inhibition of ODC enzyme activity. The source holds these as a separate data set.
Take B3: it took 190 nM to reach half-maximal inhibition (IC50).
The same measure, in the same setting: the value for B4 was 170 nM; that for B5 was 180 nM.
Still for that read-out and setting: the same measure for B6: 160 nM; for B7: 160 nM; for B8: 170 nM.
For B9, the IC50 is 200 nM.
On the same count and under the same terms, the value for B10 was 190 nM; that for B11 was 190 nM.
